Test results published in article PMC12339401 (Nature Cell Biology, 2025).

T1: mCherry-tagged WIPI1 (UniProt Q5MNZ9 1-446)
T1 construct: WIPI1; called purified WIPI1-4 in the results
T1 sequence (looked up): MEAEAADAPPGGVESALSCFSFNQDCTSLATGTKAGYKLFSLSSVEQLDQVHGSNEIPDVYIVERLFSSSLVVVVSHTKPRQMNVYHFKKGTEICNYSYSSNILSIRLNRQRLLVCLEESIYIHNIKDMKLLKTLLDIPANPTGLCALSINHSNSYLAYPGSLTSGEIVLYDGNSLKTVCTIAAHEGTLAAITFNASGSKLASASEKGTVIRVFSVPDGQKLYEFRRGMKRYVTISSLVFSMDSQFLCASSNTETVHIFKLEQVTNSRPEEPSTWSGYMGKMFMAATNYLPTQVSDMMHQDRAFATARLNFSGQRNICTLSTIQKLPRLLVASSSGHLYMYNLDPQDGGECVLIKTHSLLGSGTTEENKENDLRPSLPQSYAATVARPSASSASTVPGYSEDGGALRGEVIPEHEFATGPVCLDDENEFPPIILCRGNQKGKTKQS

B1: NIX(1–182)-GST (domain or fragment)
chain: not shown
notes: NIX (BNIP3L), human, cytosol-exposed domain, residues 1-182; transmembrane domain replaced by GST; also called NIX-GST; GST-tagged NIX; source: E. coli Rosetta pLysS, purified; not shown: GST, C-terminal, kept
B2: mCherry-tagged ATG13 IDR (191–517 aa) (domain or fragment, UniProt O75143 191-517, looked up)
chain: INLAFMSTRQFERTPPIMGIIIDHFVDRPYPSSSPMHPCNYRTAGEDTGVIYPSVEDSQEVCTTSFSTSPPSQLSSSRLSYQPAALGVGSADLAYPVVFAAGLNATHPHQLMVPGKEGGVPLAPNQPVHGTQADQERLATCTPSDRTHCAATPSSSEDTETVSNSSEGRASPHDVLETIFVRKVGAFVNKPINQVTLTSLDIPFAMFAPKNLELEDTDPMVNPPDSPETESPLQGSLHSDGSSGGSSGNTHDDFVMIDFKPAFSKDDILPMDLGTFYREFQNPPQLSSLSIDIGAQSMAEDLDSLPEKLAVHEKNVREFDAFVETLQ
notes: also called mCh-IDR; source: E. coli Rosetta pLysS, purified; not shown: mCherry, N-terminal, kept
B3: GFP-tagged ATG13 IDR (191–517 aa) (domain or fragment, UniProt O75143 191-517, looked up)
chain: INLAFMSTRQFERTPPIMGIIIDHFVDRPYPSSSPMHPCNYRTAGEDTGVIYPSVEDSQEVCTTSFSTSPPSQLSSSRLSYQPAALGVGSADLAYPVVFAAGLNATHPHQLMVPGKEGGVPLAPNQPVHGTQADQERLATCTPSDRTHCAATPSSSEDTETVSNSSEGRASPHDVLETIFVRKVGAFVNKPINQVTLTSLDIPFAMFAPKNLELEDTDPMVNPPDSPETESPLQGSLHSDGSSGGSSGNTHDDFVMIDFKPAFSKDDILPMDLGTFYREFQNPPQLSSLSIDIGAQSMAEDLDSLPEKLAVHEKNVREFDAFVETLQ
notes: also called full IDR; full-length IDR; source: E. coli Rosetta pLysS, purified; not shown: EGFP, N-terminal, kept
B4: GFP-tagged ATG13 (191–230 aa) (peptide, UniProt O75143 191-230, looked up)
chain: INLAFMSTRQFERTPPIMGIIIDHFVDRPYPSSSPMHPCN
notes: Addgene number by the order of printing; source: E. coli Rosetta pLysS, purified; not shown: EGFP, N-terminal, kept
B5: GFP-tagged ATG13 IDR Δ191–205 (205–517 aa) (domain or fragment, UniProt O75143 205-517, looked up)
chain: PPIMGIIIDHFVDRPYPSSSPMHPCNYRTAGEDTGVIYPSVEDSQEVCTTSFSTSPPSQLSSSRLSYQPAALGVGSADLAYPVVFAAGLNATHPHQLMVPGKEGGVPLAPNQPVHGTQADQERLATCTPSDRTHCAATPSSSEDTETVSNSSEGRASPHDVLETIFVRKVGAFVNKPINQVTLTSLDIPFAMFAPKNLELEDTDPMVNPPDSPETESPLQGSLHSDGSSGGSSGNTHDDFVMIDFKPAFSKDDILPMDLGTFYREFQNPPQLSSLSIDIGAQSMAEDLDSLPEKLAVHEKNVREFDAFVETLQ
notes: as for B4
B6: GFP-tagged ATG13 (206–230 aa) (peptide, UniProt O75143 206-230, looked up)
chain: PIMGIIIDHFVDRPYPSSSPMHPCN
notes: ATG13, residues 206-230; Addgene number by the order of printing; also called ATG13 IDR fragment residues 206–230; source: E. coli Rosetta pLysS, purified; not shown: EGFP, N-terminal, kept

Columns and labels:
Settings in all cases: both partners purified
mCherry-tagged WIPI1 = target: T1, mCherry-tagged WIPI1; test: microscopy-based bead assay; GST-tagged bait on Glutathione Sepharose 4B beads, GFP- or mCherry-tagged prey in solution, confocal imaging
GST-WIPI3 = GST-WIPI3 (UniProt Q5MNZ6 1-344); test: as above
mCherry-WIPI3 = target: T2, mCherry-WIPI3 (UniProt Q5MNZ6 1-344); test: microscopy-based bead assay; GFP-tagged bait on GFP-trap agarose beads, mCherry-tagged prey in solution, confocal imaging
T2 construct: 6xHis-TEV-mCherry tag; also called mCherry-tagged WIPI3; source: E. coli Rosetta pLysS, purified; not shown: mCherry, N-terminal, kept

| Binder | binding result (mCherry-WIPI3) | further results |
| --- | --- | --- |
| B1 |  | binding result (mCherry-tagged WIPI1): binds |
| B2 |  | binding result (GST-WIPI3): binds |
| B3 | binds |  |
| B4 | binds |  |
| B5 | binds |  |
| B6 | binds |  |
